Test results: patent US20120077731A1 (Ablynx, published 2012)

Experiments:
Human soluble IL-6R [1] = target: T1, Human soluble IL-6R (human, UniProt P08887 20-358); experiment: Biacore T100
T1 construct: Soluble recombinant form; biotinylated in some assays; also called hIL-6R; human IL-6R
T1 sequence (looked up): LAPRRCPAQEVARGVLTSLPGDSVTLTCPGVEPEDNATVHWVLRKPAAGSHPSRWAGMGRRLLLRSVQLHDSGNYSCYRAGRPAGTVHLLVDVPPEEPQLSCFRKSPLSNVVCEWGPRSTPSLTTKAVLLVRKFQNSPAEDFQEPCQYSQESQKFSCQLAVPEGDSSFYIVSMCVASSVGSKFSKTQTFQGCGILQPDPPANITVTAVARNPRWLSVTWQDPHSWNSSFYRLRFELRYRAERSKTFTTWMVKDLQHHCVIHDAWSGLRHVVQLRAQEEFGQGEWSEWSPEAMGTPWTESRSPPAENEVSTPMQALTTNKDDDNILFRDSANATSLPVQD

[2] = target: T2, Human membrane IL-6R on cells (human, UniProt P08887 20-468); experiment: cell-based or functional assay
T2 sequence (looked up): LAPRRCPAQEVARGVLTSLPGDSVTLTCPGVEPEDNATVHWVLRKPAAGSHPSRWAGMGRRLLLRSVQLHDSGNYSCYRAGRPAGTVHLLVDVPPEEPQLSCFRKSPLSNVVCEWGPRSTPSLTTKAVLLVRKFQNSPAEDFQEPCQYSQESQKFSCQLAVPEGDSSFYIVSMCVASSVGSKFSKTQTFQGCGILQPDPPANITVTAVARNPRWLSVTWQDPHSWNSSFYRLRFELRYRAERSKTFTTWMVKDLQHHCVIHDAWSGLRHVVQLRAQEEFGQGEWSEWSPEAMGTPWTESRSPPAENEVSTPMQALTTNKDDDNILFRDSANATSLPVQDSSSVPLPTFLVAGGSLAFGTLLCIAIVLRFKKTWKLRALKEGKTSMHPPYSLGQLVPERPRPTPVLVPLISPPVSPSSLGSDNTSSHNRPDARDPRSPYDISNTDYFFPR

[3] = target: T2, Human membrane IL-6R on cells; experiment: cell-based or functional assay; remark: listed apart in the source
Cyno plasma sIL-6R [4] = target: T3, Cyno plasma sIL-6R (cynomolgus monkey, UniProt A0A2K5WN54 60-396); experiment: plasma potency ELISA, cyno plasma
T3 construct: also called cynomolgus sIL-6R
T3 sequence: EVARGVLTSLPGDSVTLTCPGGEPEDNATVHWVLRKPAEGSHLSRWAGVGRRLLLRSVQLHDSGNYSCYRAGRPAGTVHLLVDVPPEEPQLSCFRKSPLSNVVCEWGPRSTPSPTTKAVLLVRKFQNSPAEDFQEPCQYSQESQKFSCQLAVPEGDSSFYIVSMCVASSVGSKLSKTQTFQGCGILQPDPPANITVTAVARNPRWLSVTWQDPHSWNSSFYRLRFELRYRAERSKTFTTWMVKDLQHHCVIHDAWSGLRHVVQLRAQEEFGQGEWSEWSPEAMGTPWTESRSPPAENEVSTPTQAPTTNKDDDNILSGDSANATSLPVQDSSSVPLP

Human plasma sIL-6R [5] = target: T4, Human plasma sIL-6R (human, UniProt P08887 20-355, limits assumed); experiment: plasma potency ELISA, human plasma
T4 construct: also called plasma-derived human IL-6R
T4 sequence (looked up): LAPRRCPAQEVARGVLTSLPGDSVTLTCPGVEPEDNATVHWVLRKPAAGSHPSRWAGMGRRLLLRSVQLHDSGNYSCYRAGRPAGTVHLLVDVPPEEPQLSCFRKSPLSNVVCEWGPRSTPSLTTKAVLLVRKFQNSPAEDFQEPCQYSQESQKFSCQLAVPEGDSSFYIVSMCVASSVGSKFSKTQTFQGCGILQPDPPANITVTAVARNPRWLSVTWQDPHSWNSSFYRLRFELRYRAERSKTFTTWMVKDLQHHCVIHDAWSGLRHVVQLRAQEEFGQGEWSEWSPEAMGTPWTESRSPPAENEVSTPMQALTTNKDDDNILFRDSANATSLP

Human soluble IL-6R [6] = target: T1, Human soluble IL-6R; experiment: Biacore T100, IL-6R captured via mAb BN-12
[7] = target: T2, Human membrane IL-6R on cells; experiment: flow cytometry, human PBL, lymphocytes donor 2
Method: (§1) The Nanobodies were incubated in EDTA-treated blood from 2 donors and bound Nanobody was detected by flow cytometry. Lymphocytes, monocytes and granulocytes were gated based on FSC/SSC properties (FIG. 40) and bound Nanobodies were detected in the PE channel.

[8] = target: T2, Human membrane IL-6R on cells; experiment: flow cytometry, human PBL, granulocytes donor 1
Method: as §1

Cyno plasma sIL-6R [9] = target: T3, Cyno plasma sIL-6R; experiment: plasma potency ELISA, human against cyno plasma
Human plasma sIL-6R [10] = target: T4, Human plasma sIL-6R; experiment: plasma potency ELISA, human plasma, high IL-6 (EC95)
Cyno plasma sIL-6R [11] = target: T3, Cyno plasma sIL-6R; experiment: plasma potency assay, cyno plasma, 2.4 nM IL6; blocked ligand IL-6
Method: (§2) All 5 affinity matured Nanobodies and the sequence optimized Nanobody were also tested in a plasma potency assay. […] TMB was used as substrate.

Human plasma sIL-6R [12] = target: T4, Human plasma sIL-6R; experiment: plasma potency assay, human plasma, 42 nM IL6; blocked ligand IL-6
Method: as §2

Mouse IL-6R = target: T5, Mouse IL-6R (mouse, UniProt P22272 20-364, limits assumed); experiment: competition ELISA: IL6R20A11 (0.4 nM) pre-incubated with a series of recombinant mouse sIL-6R; free IL6R20A11 captured on biotinylated human sIL-6R on neutravidin
T5 construct: also called mouse sIL-6R
T5 sequence (looked up): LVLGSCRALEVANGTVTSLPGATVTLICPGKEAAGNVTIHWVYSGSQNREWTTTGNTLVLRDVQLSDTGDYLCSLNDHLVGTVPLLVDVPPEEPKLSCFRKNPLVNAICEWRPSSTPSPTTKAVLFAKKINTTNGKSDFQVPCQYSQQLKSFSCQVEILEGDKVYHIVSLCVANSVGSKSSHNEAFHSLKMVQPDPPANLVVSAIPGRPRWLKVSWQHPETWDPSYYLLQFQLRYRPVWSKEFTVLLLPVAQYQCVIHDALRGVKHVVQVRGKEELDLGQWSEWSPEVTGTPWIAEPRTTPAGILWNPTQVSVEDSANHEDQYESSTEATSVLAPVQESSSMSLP

B1: PMP20A11 (VHH)
VHH: EVQLVESGGGLVQPGGSLRLSCAASGSVFKINVMAWYRQAPGKGRELVAGIISGGSTSYADSVKGRFTISRDNAKNTLYLQMNSLRPEDTAVYYCAFITTESDYDLGRRYWGQGTLVTVSS
notes: also called IL6R20A11; IL6R300; not shown: c-myc and (His)6 tags
Kd (Human soluble IL-6R [1]): 19 pM | IC50, TF1 assay [2]: 400 pM | IC50 (nM), TF-1 proliferation at 100 IU/mL IL-6 [3]: 0.283 nM | IC50 (Cyno plasma sIL-6R [4]): 117 pM | IC50 (Human plasma sIL-6R [5]): 198 pM | kon (Human soluble IL-6R [6]): 1e+06 M⁻¹ s⁻¹ | EC50 [7]: 2920 pM | EC50 [8]: 2420 pM | Ratio (human/cyno) of IC50 (Cyno plasma sIL-6R [9]): 1.69 | IC50 (Human plasma sIL-6R [10]): 356 pM | IC50 (Cyno plasma sIL-6R [11]): 90 pM | IC50 (read off the curve) (Human plasma sIL-6R [12]): ~400 pM | binding result (Mouse IL-6R): no binding (tested: about 200 ng/mL (log conc 2.3))
